# According to the supplement of paper PMC10724198:
# ± gives the standard deviation of the averaged measurements.
# Assays:
# Saccharomyces cerevisiae [1] = assay: protein stability index of tFT-peptide fusion (C-terminal peptide) (PSI (0-1 scale)); higher = more stable (slower turnover)
# Description: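 MPS profiling in S. cerevisiae of the tFT-X12 degron library: putative degron peptides plus stable controls, 12 aa, fused to the C-terminus of a sfGFP-mCherry timer. Cells are FACS-sorted into 8 mCherry/sfGFP bins and deep-sequenced. PSI runs from 0 (unstable) to 1 (stable). Backgrounds are wild type, das1Δ and doa10Δ at 30 °C, and wild type, das1Δ, cdc34-1 and cdc53-1 at 37 °C; 2-3 technical replicates each.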
# Saccharomyces cerevisiae [2] = assay: as above; conditions: genetic background: wild type; temperature: 30 C
# [3] = genetic background: cdc34-1, temperature: 37 C
# [4] = genetic background: cdc53-1, temperature: 37 C
# [5] = genetic background: das1 deletion, temperature: 30 C
# [6] = genetic background: das1 deletion, temperature: 37 C
# [7] = genetic background: doa10 deletion, temperature: 30 C
# [8] = genetic background: wild type, temperature: 30 C
# [9] = genetic background: wild type, temperature: 37 C
# 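Further: PSI is a weighted mean of sequencing reads over stability bins, variants kept only with over 10 reads, mCherry proximal and sfGFP distal, peptide attached via GGGS linker.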
Sequence,protein stability index (Saccharomyces cerevisiae [2]),further results
RLLLLPGPLALQ,–,protein stability index (Saccharomyces cerevisiae [1]; [3]): 0.634 ± 0.022; protein stability index (Saccharomyces cerevisiae [1]; [4]): 0.73 ± 0.034; protein stability index (Saccharomyces cerevisiae [1]; [5]): 0.67 ± 0.022; protein stability index (Saccharomyces cerevisiae [1]; [6]): 0.7 ± 0.016; protein stability index (Saccharomyces cerevisiae [1]; [7]): 0.685 ± 0.054; protein stability index (Saccharomyces cerevisiae [1]; [8]): 0.673 ± 0.021; protein stability index (Saccharomyces cerevisiae [1]; [9]): 0.714 ± 0.062
RRAVGLANFTIK,–,protein stability index (Saccharomyces cerevisiae [1]; [3]): 0.705 ± 0.016; protein stability index (Saccharomyces cerevisiae [1]; [4]): 0.773 ± 0.035; protein stability index (Saccharomyces cerevisiae [1]; [5]): 0.678 ± 0.062; protein stability index (Saccharomyces cerevisiae [1]; [6]): 0.693 ± 0.028; protein stability index (Saccharomyces cerevisiae [1]; [7]): 0.639 ± 0.06; protein stability index (Saccharomyces cerevisiae [1]; [8]): 0.671 ± 0.019; protein stability index (Saccharomyces cerevisiae [1]; [9]): 0.706 ± 0.022
VLICFSVFSWVV,–,protein stability index (Saccharomyces cerevisiae [1]; [3]): 0.0264 ± 0.00023; protein stability index (Saccharomyces cerevisiae [1]; [4]): 0.0313 ± 0.00079; protein stability index (Saccharomyces cerevisiae [1]; [5]): 0.0368 ± 0.01; protein stability index (Saccharomyces cerevisiae [1]; [6]): 0.0531 ± 0.0097; protein stability index (Saccharomyces cerevisiae [1]; [7]): 0.0228 ± 0.0066; protein stability index (Saccharomyces cerevisiae [1]; [8]): 0.0178 ± 0.0049; protein stability index (Saccharomyces cerevisiae [1]; [9]): 0.0371 ± 0.0086
VPPGCSLFAFIL,–,protein stability index (Saccharomyces cerevisiae [1]; [3]): 0.7246 ± 0.005; protein stability index (Saccharomyces cerevisiae [1]; [4]): 0.75537 ± 0.00043; protein stability index (Saccharomyces cerevisiae [1]; [5]): 0.644 ± 0.025; protein stability index (Saccharomyces cerevisiae [1]; [6]): 0.7794 ± 0.005; protein stability index (Saccharomyces cerevisiae [1]; [7]): 0.555 ± 0.032; protein stability index (Saccharomyces cerevisiae [1]; [8]): 0.547 ± 0.019; protein stability index (Saccharomyces cerevisiae [1]; [9]): 0.73 ± 0.01
WAGLAQPKLVLH,0.659 ± 0.024,–
WAPHLPQPSRCS,0.743 ± 0.062,–
WARDLGAVAVQT,0.518 ± 0.075,–
WAVGLNPSGLGT,0.651 ± 0.063,–
WCMMSWMSQFRP,0.653 ± 0.015,–
WCPGVSGVAGVF,0.703 ± 0.056,–
WCPVHGSGGAPL,0.674 ± 0.026,–
WCVCTFGGCDFP,0.641 ± 0.012,–
WCVEGRATGRGW,0.674 ± 0.018,–
WCVRWGVVGPGL,0.634 ± 0.03,–
WDGAGGGFGLVV,0.726 ± 0.061,–
WDGGPTRSGGTG,0.711 ± 0.013,–
WDNGQVRLLRYV,0.593 ± 0.015,–
WEACLGRPEAGM,0.724 ± 0.064,–
WEEKLEGTPTGG,0.72 ± 0.072,–

Sequence,protein stability index (Saccharomyces cerevisiae [2]),further results
WELVYLASLVQQ,0.666 ± 0.055,–
WEVGVGRQDVEW,0.7448 ± 0.0065,–
WFDGGGWLLFVV,0.557 ± 0.011,–
WFDWLAIAFYLT,0.526 ± 0.014,–
WFFVADVFKSWL,0.704 ± 0.039,–
WFRPPSVPEEEY,0.728 ± 0.048,–
WFSCYSGQSSNF,0.757 ± 0.11,–
WFSGFLGEFNRF,0.706 ± 0.063,–
WFVVRGGLSPGG,0.695 ± 0.038,–
WGAGRGGAFFSG,0.6576 ± 0.0062,–
WGCCRPERNCAV,0.702 ± 0.02,–
WGFLCVALGRWV,0.644 ± 0.038,–
WGGAGGGSGYGR,0.68 ± 0.064,–
WGGCALEQGGAV,0.736 ± 0.025,–
WGGFGLGVCAKC,0.616 ± 0.072,–
WGGGGGGGPAGV,0.6659 ± 0.0021,–
WGGGGLRVSCGT,0.687 ± 0.093,–
WGGGGVLEVLLG,0.531 ± 0.008,–
WGGGGWRGGGAR,0.747 ± 0.033,–
